Two molecules from PMC10530651, “Mechanisms of Regulation of the CHRDL1 Gene by the TWIST2 and ADD1/SREBP1c Transcription Factors” can be followed below.

The target of data set [1] is T1, TWIST2 Q119X (Homo sapiens, UniProt Q8WVJ9 1-118).
T1 sequence: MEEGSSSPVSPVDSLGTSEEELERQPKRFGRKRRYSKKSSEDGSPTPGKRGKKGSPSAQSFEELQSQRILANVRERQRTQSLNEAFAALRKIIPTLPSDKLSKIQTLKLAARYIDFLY
Nature of the data set: EMSA; EMSA: 20 mM HEPES pH 7.9, 60 mM KCl, 1 mM MgCl2, 0.5 mM DTT, 10% glycerol, 10 µL with 1-3 µL TnT lysate; competitor at least 50x molar excess; 6% native gel, 0.5X TBE, 4 °C; binding temperature not stated. The note with it: protein: ivt; tags: Myc; chain copies: 2; label: 32P as probe; blunt. (In general: A gel shift assay detects complexes by their altered migration in electrophoresis.)

For data set [2], the target named is T1, TWIST2 Q119X. The data set is described as follows: EMSA; homodimer; EMSA: 20 mM HEPES pH 7.9, 60 mM KCl, 1 mM MgCl2, 0.5 mM DTT, 10% glycerol, 10 µL with 1-3 µL TnT lysate; competitor at least 50x molar excess; 6% native gel, 0.5X TBE, 4 °C; binding temperature not stated. Conditions: protein: ivt; tags: Myc; chain copies: 2; label: 32P as probe; blunt.

B1: CH2600TWI (dsDNA)
DNA 1: TATATACACAGGCAAATGAGTGCATATAAA
DNA 2: TTTATATGCACTCATTTGCCTGTGTATATA
Regarding B1, in data set [1], the binding result is “no binding”.

B2: CH2700EA (dsDNA)
DNA 1: TGGTGGTGGTCACATGAATATACACATGCGATAAAATT
DNA 2: AATTTTATCGCATGTGTATATTCATGTGACCACCACCA
As for B2, in data set [2], the binding result is “no binding”.
